Test results: PMC7948816 (2021)

Columns and labels:
alpha-tropomyosin [1] = molecular target: T1, alpha-tropomyosin (Oryctolagus cuniculus, UniProt P58772); test: fluorescence titration
alpha-tropomyosin [2] = molecular target: T1, alpha-tropomyosin; test: ITC

T1 sequence (P58772 whole entry): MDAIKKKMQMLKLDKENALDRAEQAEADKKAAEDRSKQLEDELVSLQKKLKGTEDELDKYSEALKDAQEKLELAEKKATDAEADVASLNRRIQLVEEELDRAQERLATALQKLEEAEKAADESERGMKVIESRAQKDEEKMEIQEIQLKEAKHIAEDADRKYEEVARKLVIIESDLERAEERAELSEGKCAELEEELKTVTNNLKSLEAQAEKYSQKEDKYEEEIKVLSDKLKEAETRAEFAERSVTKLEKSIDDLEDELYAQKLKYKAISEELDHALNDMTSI

Row | Binder | Kd (alpha-tropomyosin [1]) | Kd (alpha-tropomyosin [2])
1 | ENREVGDWHKNIDALSGMEGRKKKFES [cardiac troponin I C-terminal peptide HcTnI-C27-H 184-210] | 15 µM | 
2 | ENREVGDWRKNIDALSGMEGRKKKFES [cardiac troponin I C-terminal peptide HcTnI-C27 184-210] | 8 µM | 11 µM
